Results: PMC7924616

Target: Gorilla bocavirus 1 (GBoV1) VP3, assembled as virus-like particles (VP3-only capsids) (Gorilla bocavirus 1)
Assay: cryo-EM structure; purified GBoV1 VLPs (wild-type and VP3-only) in 1x PBS vitrified on holey carbon grids; Titan Krios 300 kV; cisTEM reconstruction with imposed icosahedral symmetry; 2.76 Å

Substance: Gorilla bocavirus 1 (GBoV1) VP3, assembled as virus-like particles (VP3-only capsids) (natural protein)
- stoichiometry N: 60
